# Measured values from patent US10487318.
# T1: 33mer peptide (LQLQPFPQPQLPYPQPQLPYPQPQLPYPQPQPF)
# T1 chain: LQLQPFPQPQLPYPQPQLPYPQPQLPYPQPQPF
# T2: α9-gliadin peptide (QLQPFPQPQLPY)
# T2 chain: QLQPFPQPQLPY
# T3: Glia_56-79 peptide (LQLQPFPQPQLPYPQPQLPY)
# T3 chain: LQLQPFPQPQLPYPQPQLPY
# T4: γ-gliadin peptide (IQPQQPAQL)
# T4 chain: IQPQQPAQL
# T5: α2-gliadin peptide (PQPQLPYSQPQPFR)
# T5 chain: PQPQLPYSQPQPFR
# T6: fluorescent analogue of gliadin, hexapeptide QPQLPY conjugated to a fluorophore and a quencher
# T6 chain: QPQLPY
# B1: Homologue 16 (NCBI YP_003387700) (protein)
# chain: MSAFDQLVPLPGSEKTVPDAAPSQTLDPNEVLTVTIRIRRKRTLASLVSTTAPVTEVVSRSEYASRFGADPAIVKQVEAFASAYDLSLVEQSLARRSVLLRGTVAQMEQAFGVSLANYQLADGTVFRGRTGVVNVPSELVEHIEGVFGLDNRPQARAHFQVYKPEKGTKVAPRAGGISYTPPQLARLYNFPTGVTGKGQCIAIIELGGGFRTADIKTYFGGLGLKPPTVVAVSVDGGHNAPSTADSADGEVMLDIDVAGGVAPGAKIVVYFAPNTDQGFLDAITTAMHDTKNKPSVISISWGAAESNWTPQALTSFNQAFQAAAALGITVCAAAGDTGSDDSVGDGKAHVDFPASSPFVLACGGTKLTATDNVIASEVVWHESKTSATGGGVSDVFDLPDYQQKSHVPPSVNDKTRIGRGVPDVAAVADPVTGYAVRVDGSNLVFGGTSAVAPLMAGLIALINQQRGKAVGFIHPLIYANPSAFRDITQGNNTTTTGNKGYAATTGWDACTGLGVADGKKLASVLTATPVA
# B2: Homologue 5 (NCBI ZP_09078202) (protein)
# chain: AGRTSYTPLEVAALYNFPSIHCKDQCIGILELGGGYRPADLQTYFNGLGIPQPNITDVSVGGAANRPTGDPNGPDGEVVLDIEVAAAVTPGAKIAVYFADNSDDGFLNAITTAIHDTRNKPSVISISWGKAEIGWTPQAINAMNQAFRDAAALGVTICCASGDDGSTDRVQDGRYHVDFPASSPYVLACGGTRLESSGSTITQEVVWNEGALGGGATGGGVSDVFDRPNWQANANVPTSANPERRIGRGVPDWAGNADPATGYQILVDGTRAVIGGTSAVAPLFAGLIAIINQKLGHSVGFINPILYNLSAQHNVFHDITSGNNDMSGQNGPYEAQPGWDACTGLGSPDGTKLMNAISEAHRLVSVG
# B3: Homologue 14 (NCBI YP_001861188) (protein)
# chain: HMTKHPLPGSERVLAPGSKVVAQCDPSETIEVVVVLRRKNEQQFAQMMKTIEAGAAGARPLTREELEQRFGALPEDIAKLKAFAAQHGLSVVREDASARTVVLSGRIEQFQQAFDVQLQHYEHQSMGRFRGRTGAISVPDELHGVVTAVLGLDDRPQARPHFRIRPPFQPARAQSASSFTPLQLASLYRFPQGDGSGQCIGIVELGGGYRTADLDSYFSSLGVGSPKVVAVGVDQSGNQPTGDPNGPDGEVTLDIEIAGALAPAATIAVYFTTNSDAGFIDAVSQAVHDRTNQPSVISISWGAPESMWTAQSMKALNDVLQSAAAIGVTVCAASGDSGSSDGVGDGRDHVDFPASSPYVLACGGTSLQGSGRTVAHEVVWNDGSNGGATGGGVSGAFPVPAWQEGLSTSAAQGGQRALTGRGVPDVAGDASPLTGYDVIVDGNNTVIGGTSAVAPLWAALIARINGAKGAPVGFVNPKLYKASACNDITQGNNGSYAATTGWDACTGLGSPDGVKVAAAL
# B4: Homologue 15 (NCBI YP_002754884) (protein)
# chain: MSPIASRRSALPLSERPAPENARALAAVEPDRTMTVSVLVRRKKPLVLADLEGKKLTHREFERRYGASEKDFATIAKFAAGHGLAVDHHASSLARRTVVLRGTARQMQQAFGVTLHDYEDSETQQRYHSFTGAITVPAAHARIIESVLGLDARPIAKPHFRVRKRSAAATGAVSFNPPQVASLYSFPTGVDGSGETIGILELGGGYETSDIQQYFSGLGIQPPTVVAVSVDGAVNAPGNPNGADGEVALDIQVAGSIAPGAKLAVYFAPNTEQGFVDAITTAVHDTANKPSVLSISWGGPESSWPQAAAQSLNNACESAAALGVTITVASGDNGSTDGVQDGQNHVDFPASSPYVLACGGTYLAAVNNGVPQESVWDDLASGGGATGGGVSALFPLPAWQTGANVPGGSMRGVPDVAGDASPESGYNVLVDGQPQVVGGTSAVAPLWAALIALVNQQKGEAAGFVNAALYQNPSAFHDITQGSNGAYAAAPGWDPCTGLGSPMGTAIAKILA
# B5: Homologue 19 (NCBI YP_005056054) (protein)
# chain: MPTSSRFASQSRVPLPGSERKPFVPAGAPKAAKTPKVSTAVKTVPATGRIRVSLIVPPKQPLDTKRLGKLDARLSRAQFAARHGADPASVRLVKAFAKEFGLTVEPITQPGRCTVQLSGTCAAMRKAFAISLVEHTTEQGKFRLREGEISLPAELEGHVLAVLGLDNRPQAKPHFRIAKPRATNVSYTPVQVAQMYGFPAGATATGQTIGIIELGGGYRAADLTAYFKTLGLPAPTVTAVPIDGGKNTPGNANGADGEVMLDIEVCAAVAQGAKIAVYFTTNTDQGFIDAITTAVHDSTNKPSVISISWGGPESSWTEQSMTALDAACQAAAAVGVTITVAAGDNGSSDGASGDNVDFPASSPHVLACGGTKLVGSGSTITSEVVWDETSNDEGATGGGVSTVFALPTWQKNANVPSPTTSAGGRGVPDVSGDADPSTGYTIRVDSETTVIGGTSAVAPLWAGLIALANAQNKVAAGFVNPALYAAGAKKAFRDITQGNNGSFSAGPGWDACTGLGSPVGNLVIQAVAPKSTTTKKAKKGKTK
# B6: Homologue 17 (NCBI YP_004216463) (protein)
# chain: MAATPRFASQPRVTLPGSQKHPLTTDTEVPPPAPVKAAATKLSATPFTVTVIVKRKNPLNLKQVLKPAGRLTHAAFAKAHGPSPDGVKLVKAFAKEFGLTVAPAPGQGRRALYLTGTAAAMQTAFGVTFATKIMEGTKYRVREGDICLPKELIGHVDAVLGLDNRPQAKPHFRHHKPAATSVSYTPVQVGQLYGFPSGAKATGQTIGLIELGGGFRAADITAYFKTLGQTAPKVTAVLVDKAKNTPTTSSSADGEVMLDIEVAAAVAPGANIAVYFAPNTDQGFIDAISQAVHDTVNKPSVISISWGGPESTWTAQSLAALDAACQSAAALGITITVAAGDDGSTDGVKGTVNHVDFPASSPHVLGCGGTKLLGSGTTITSEVVWNELTANEGATGGGVSNVFPLPTWQAKSNVPKPTVAAGGRGVPDVSGNADPSTGYTVRVDGSTFPIGGTSAVAPLWAGLIALCNAQNKTTAGFINPALYAAAAAKSFRDITSGNNGGFKAGPGWDACTGLGSPIGTAIAKTLAPATKSTSKTAVKNAPEIRFRPHKKAPTKTAAKTPALRRLK
# B7: Homologue 6 (NCBI YP_003109679) (protein)
# chain: MAPEERRTLPGSAMPRPAGAQVLGQIPDDERVEVTVVLQPRAPLPEPGPTPMSRAELADLRSPPEGALEAIARYVAGQGLEVIAADAPRRRIVLAGSAARIAALFGISFVRLQLEGRRYRTYEGEISLPAELAPLVVAVLGLDTRPFARSHRRPAVAPNAPTTAPTVARAYDFPTAYDGRGTTIGFIELGGGFQESDLVRYCEGLGLSTPQVSVVGVDGARNAPTGDPNGPDAEVMLDLEVATGVANGADLVLYMAANTDAAFYSAIATALRDATHAPVAISISWGAPEESYPATTIAAFESVLEEAVHVGVTVLVAAGDQGSTDGVDDGRAHVDYPAASPYVLACGGTRLDLDGTTIVAETVWNDLPNGGATGGGISALFPVPSWQAGIAMPPSANPGAGPGRGVPDVAGNADPDTGYRIVVDGVATVVGGTSAVAPLWAGLVARCHQAGARGGFWNPLLYAARGSSAFHEITVGSNGAYDAGPIWNACCGLGSPNGTAILQTLRA
# How the values were obtained:
# [1] = biological target: T1, 33mer peptide …
# [2] = biological target: T2, α9-gliadin peptide (QLQPFPQPQLPY)
# [3] = biological target: T3, Glia_56-79 peptide …
# [4] = biological target: T4, γ-gliadin peptide (IQPQQPAQL)
# [5] = biological target: T5, α2-gliadin peptide (PQPQLPYSQPQPFR)
# [6] = biological target: T6, fluorescent analogue of gliadin, …
protein,measurement,setting,value
B1,Degradation pattern of 33mer (60 min),[1],WT-like
B2,grade and % of peptide after an 80-min incubation,[2],++/-; 34%;
same,grade and % of peptide after an 80-min incubation,[3],++; 0.4%
same,grade and % of peptide after an 80-min incubation,[4],++/-; 40%
same,grade and % of peptide after an 80-min incubation,[5],++ (undetect)
B3,Degradation pattern of 33mer (60 min),[1],WT-like - minor
B4,Degradation pattern of 33mer (60 min),[1],WT-like
B5,Degradation pattern of 33mer (60 min),[1],WT-like - minor
B6,Degradation pattern of 33mer (60 min),[1],WT-like - minor
B7,"rate of degradation of the fluorescent hexapeptide, pH 4",[6],no activity was seen for this homologue in the fluorescent experiment conducted at pH 4
same,grade and % of peptide after an 80-min incubation,[2],-; 114%
same,grade and % of peptide after an 80-min incubation,[3],-; 85%
same,grade and % of peptide after an 80-min incubation,[4],-; 102%
same,grade and % of peptide after an 80-min incubation,[5],-; 87%
